# Source: the supplement of paper PMC9170038
# Tested on: MS2 coat protein
# Assay: apparent KD of MS2 coat protein; higher = weaker reporter binding
# Conditions: Eterna round: R107
# How it was run: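 Illumina sequencing clusters served as templates for on-chip transcription of the designed RNA switches. SNAP-549-labelled MS2 coat protein was then titrated in twofold steps from 0.7 or 1.5 nM to 3 µM, allowing 0.8–1.5 h per step at first and 10–20 min per step later. The buffer held 100 mM Tris-HCl pH 7.5, 80 mM KCl and 4 mM MgCl2, without or with constant ligand. Apparent KD is the median per design of normalised cluster binding-curve fits.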
# [1] = input ligand: theophylline 20 uM
# [2] = input ligand: theophylline 2 mM
# [3] = input ligand: tryptophan 2.4 mM
Sequence,apparent KD of MS2 coat protein (input ligand: arginine 13.2 mM),apparent KD of MS2 coat protein (input ligand: none),apparent KD of MS2 coat protein [1],apparent KD of MS2 coat protein [2],apparent KD of MS2 coat protein [3]
AUACAUGAGGAUCACCCAUGUCAUUCAGAAGGAGCGUCAUUUUAGACAGGUAGGUCGCUGAUAUUAUCUUUAUACUUUAUGUUUA [JR_ExcArginiA_Sub023],19.1 nM,18.3 nM,27.3 nM,18.2 nM,19.9 nM
UUUUAAUGUGCGGAUACCAGCCGUACAUGAGGAUCACCCAUGUCGCUGUUGAGCAUCGUCGGCCCUUGGCAGCUGUGUGUAGUUG [#27 Same State - Theophylline B],26.2 nM,51.9 nM,62.7 nM,66 nM,42.3 nM
ACCAGCACACAUGAUACCAGCGACAUGAGGAUCACCCAUGUACGGCGUGUAUCGAAAGGUUGCCCUUGGCAGCAUGAUAGUGCUA [Ratiarla],14.5 nM,–,28.2 nM,–,12.8 nM
GGACUAACCUGAAGGAGCGACGCGCAGAAACUGCAAUUUCCUCCACACGAGGAUCACCCGUGUCAGGUAGGUCGCAGGUUAGUCG [ArgBX 29],13.1 nM,14.1 nM,18.3 nM,15.4 nM,15.3 nM
AACAUGAGGAUCACCCAUGUAAUAUGGGAUACCAGAGACGAAAGUCUCCCUUGGCAGCCCAAGCUGCUCCAUACGAAAGUAUGGU [Theophylline A 16],50.5 nM,–,43.7 nM,–,64.7 nM
CCUCGUGCAACAUGAGGAUCACCCAUGUACCGAGGACCGGUACGGCCGCCACUCGAAAACGAGUACCAUUAGCGAAAGCUGAUGG [Trp A SS mod1],11.9 nM,13.1 nM,16.4 nM,14.2 nM,14.1 nM
AUUUAUGGUCGUGAUACCAGACAUACAUGAGGAUCACCCAUGUGAAAUAACAUAAUUUAGGUCCCUUGGCAGCACUUUUUAAUUA [JR_Nu_SSTheophyB_Sub020],43.9 nM,–,63.6 nM,–,52.4 nM
AUAUCAUAGAGUGAUACCAGACUACAUGAGGAUCACCCAUGUGACAUUUAAAUAUCAUUUGUCCCUUGGCAGCACAUUAAGUACA [JR_Nu_ExcTheophyB_Sub020],50.6 nM,–,79.8 nM,–,61.6 nM
UUUAACGGGCACGAUACCAGCGACAUGAGGAUCACCCAUGUAAACGCGGUGACGGUCUGUUGCCCUUGGCAGCGUGCAAAAUAAU [Zaquarar],43 nM,67.6 nM,157 nM,94.3 nM,48.5 nM
AAAGUUGAUGAGUUGCGUUUGUGUUCCGAAGGAGCGAGAAUUAUCUCAGGUAGGUCGCGGAACAUGAGGAUCACCCAUGUAUAAA [XArg-A 19 NuV1&2 original #dotplot2>1],35.3 nM,36.3 nM,46.2 nM,41.6 nM,34.3 nM
ACAUGAGGAUCACCCAUGUGAAGCAGGGUACGAGGACCGGUACGGCCGCCACUCGAGGAUUAUACCGAGUGAAUGGCAACGAUGU [whbob_Ex_trypto A_2s18],13.2 nM,14.1 nM,21.8 nM,17.8 nM,15.2 nM
AGACAUGUAAGAUAAAUGACUUAUACAGAUACCAGACUAGUCAAUGUCCCUUGGCAGCUGCAUAACAUGAGGAUCACCCAUGUAA [JR_ExcTheophyA_Sub009],20.6 nM,–,27.5 nM,–,24.4 nM
AGAAUAACACAUGAGGAUCACCCAUGUGAUACCAGCUAGGAAACUAGCCCUUGGCAGCACAUAAUCCUCAUGAGCUGCCAUAAUA [(M1)-(M2)-(T1)-(T2)-(M)'-(T)'_Design2_2/19/17],12 nM,–,19.2 nM,–,12.3 nM
UCACGAGGCCUGGAUACCAGCGACAUGAGGAUCACCCAUGUAUGAGGAUCAGCCAUGUUAUGCCCUUGGCAGCCACGAAGGUCAU [XZZMULLIN],14.5 nM,–,26.5 nM,–,15.8 nM
AUACCUAAUGUUACAUUUUCCUUUUCAGAUACCAGACUUUACGUUGUCCCUUGGCAGCUGUAUCACAUGAGGAUCACCCAUGUUG [JR_SSTheophyA_Sub009],17.3 nM,–,20.7 nM,–,17 nM
UGGUACAUGGCGGCCGCCACUUCACGUAAAAUAAAAGCUUGAGGAUCACCCAAGUAAUAAGUUGGGAGGACCGGGUCAUGUACCU,19.2 nM,19.8 nM,27 nM,24.7 nM,16.6 nM
UGUAUGGACUGAAGGAGCGCCUCAAAAUAACAUGAGGAUCACCCAUGUAAGGCGAAAGCCGGGCAGGUAGGUCGCAGUCCAUACU [ArgBX 3 #StaticStem #MS2Late],15.8 nM,11.2 nM,16.1 nM,17 nM,12.7 nM
GCUGAACAUGAGGAUCACCCAUGUCCGGAUACCAGCGGACCUCAUCGCCCUUGGCAGCCGAACCAACAGCUUGUGGUGUUCACUC [theeternabot_sameState_MS2_Theo_A_10],32.2 nM,–,58.2 nM,–,37.2 nM
ACAUGAGGAUCACCCAUGUGUGUAAAUCCUCGAGGACCGGUACGGCCGCCACUCGAACGAGUGUAAGUUGAAUGUAACAUUCAAC [SS Trp A v1],47.3 nM,–,123 nM,104 nM,–

Sequence,apparent KD of MS2 coat protein (input ligand: arginine 13.2 mM),apparent KD of MS2 coat protein (input ligand: none),apparent KD of MS2 coat protein [1],apparent KD of MS2 coat protein [2],apparent KD of MS2 coat protein [3]
UAUCCACAUGAGGAUCACCCAUGUUAGGAAGGAGCGGUGAAUGAACCAGGUAGGUCGCCUAGGUGAGGAUCAUCUAUGGAUUCGU [Exclusion - Arginine A (Freestyle 11)],30 nM,30.2 nM,37.3 nM,38.3 nM,31.7 nM
UAUAUAUAUCACUAACUGUUCUUGAGGUCUCGAGGACCGGUACGGCCGCCACUCGUACCGCCUCACAUGAGGAUCACCCAUGUCC [XTryp A #1],52.2 nM,–,85.5 nM,97.6 nM,–
UUGGUAGGACAGCUCAUAUAAGCAUGUGAUACCAGCUAGAAAACUAGCCCUUGGCAGCACUUUACAUGAGGAUCACCCAUGUCCC [EThA NP+V+V2 #2 +-Same Structure],68.8 nM,–,258 nM,–,145 nM
UCAAUAAUUAGAUUGUUACAUGUAUCAGAAGGAGCGUGAGUAAUCACAGGUAGGUCGCUGUUAACAUGAGGAUCACCCAUGUUUU [JR_ExcArginiA_Sub009],31.2 nM,40.9 nM,43.6 nM,39.2 nM,36.8 nM
GUGCCGCAUUCACAUGAGGAUCACCCAUGUCGAGGACCGGUACGGCCGCCACUCGACGUGCUUACAGGUCCUUUAAGGCCCAAUA [Usislaan],79 nM,–,200 nM,221 nM,–
ACGAACGAUAGUGAUACCAGACGUACAUGAGGAUCACCCAUGUUAUACACAUGGUUUAUUGUCCCUUGGCAGCACGUUAAGUUCG [JR_ExcTheophyB_Sub005],98.5 nM,–,274 nM,–,289 nM
ACGAUAGGACAUGAGGAUCACCCAUGUGAUACCAGCCUGGAAACAGGCCCUUGGCAGCACAAAUACUCCAGAAACCUAUCGAAUA [TheoAX2 #MicroSwitchBubble],124 nM,–,294 nM,–,273 nM
GCAUCCUAGUCGGCCGCCACUGCAUCACCGGUCCUAGGUGAUCAACAUGAGGAUCACCCAUGUAGCAGGACCGGGACUAGGAUGC [(Trp1)-(MT)''-(MT)'-(Ms2)-(Trp2)_Design2],345 nM,491 nM,320 nM,636 nM,19.9 nM
AGCUCGCGAAAGCGAGCAACAUGAUCCGAAGGAGCGCGCGAAAGCGCAGGUAGGUCGCGGACAUGAGGAUCACCCAUGUCUCCUU [MAT - Exclusion Arginine A - Mod of Eli - D14],41 nM,66.2 nM,57.3 nM,63.2 nM,62.2 nM
AGCGAGAUCCGUGAUACCAGCUACAUGAGGAUCACCCAUGUGAGCGCGAAAGUGCUGUGUAGCCCUUGGCAGCACAGUGGAUCUC [#29 Exclusion-TheophyllineB],8.84 nM,–,14.6 nM,–,11.3 nM
GUACAUGAGGAUCACCCAUGUAUAGUUGAAGGAGCGACCAGAGGGUCAGGUAGGUCGCAGCACAUGGUGUAAACCCGUGUAUGCC [#1 Exclusion - Arginine A Attempt #22 (Inspired by Pi)],29.6 nM,29.3 nM,34.6 nM,28.9 nM,26.8 nM
CCGGAGACCUCGGCCGCCACUCUCCAUGAGGAUCUCCCAUGUAACAUGAGGAUCACCCAUGUGCUGAGGACCGGGAGGUCCUCCU [Same State Tryptophan B GF 20],18.7 nM,13.2 nM,16.4 nM,17 nM,20.9 nM
CGAGUGCUGUCGGCCGCCACUGCACAUGAGGAUCACCCAUGUAAAAGCUGGCUGUGACUGGUGUUCAGGACCGGGACAGGGUCUU [Inriedzaan],10.9 nM,–,13.8 nM,11.7 nM,–
AACAUGAGGAUCACCCAUGUCAUGUUGGAUACCAGCCAAUAAUAAGGCCCUUGGCAGCUAUAGAUCGAUGAUCCAUGAGGAUCAC [Exclusion Theophylline A],27.6 nM,–,49.4 nM,–,33.1 nM
UUAGAUAUGACAGAUACCAGCGUGUUGUAGAACAUGAGGAUCACCCAUGUAGUGAUCAAGCGCCCUUGGCAGCUGGUAUGUUUGG [7.X],61.5 nM,–,277 nM,–,179 nM
CUAUAAGUACCGGUCCUCAGAUCCUCAUGACGAGGACCGGUACGGCCGCCACUCGAAACAUGAGGAUCACCCAUGUAAUAACAUU [Brourdmod22],18.5 nM,–,30.1 nM,24.9 nM,–
GCCAAAGGCUACAUGAGGAUCACCCAUGUACGAGGACCGGUACGGCCGCCACUCGUACGGCCUCCUACUGGACGGGAAACCGUCG [ETA NP+V+V2 #28],13.1 nM,20.6 nM,34.1 nM,28 nM,33.2 nM
AAUAUAUAUCACGAACUGUGGUGUAUGUUCCGAGGACCGGUACGGCCGCCACUCGCGUGGUUCCACAUGAGGAUCACCCAUGUUG [XTryp A #8],17.3 nM,16.8 nM,29.4 nM,23.2 nM,22.5 nM
